The text below walks through data of IntAct's records for PubMed 29858488.

The chains are these.
B1: Motile sperm domain-containing protein 2 (Homo sapiens), Q8NHP6 (parent)
chain: MAENHAQNKAKLISETRRRFEAEYVTDKSDKYDARDVERLQQDDNWVESYLSWRHNIVDETLKMLDESFQWRKEISVNDLNESSIPRWLLEIGVIYLHGYDKEGNKLFWIRVKYHVKDQKTILDKKKLIAFWLERYAKRENGKPVTVMFDLSETGINSIDMDFVRFIINCFKVYYPKYLSKIVIFDMPWLMNAAFKIVKTWLGPEAVSLLKFTSKNEVQDYVSVEYLPPHMGGTDPFKYSYPPLVDDDFQTPLCENGPITSEDETSSKEDIESDGKETLETISNEEQTPLLKKINPTESTSKAEENEKVDSKVKAFKKPLSVFKGPLLHISPAEELYFGSTESGEKKTLIVLTNVTKNIVAFKVRTTAPEKYRVKPSNSSCDPGASVDIVVSPHGGLTVSAQDRFLIMAAEMEQSSGTGPAELTQFWKEVPRNKVMEHRLRCHTVESSKPNTLTLKDNAFNMSDKTSEDICLQLSRLLESNRKLEDQVQRCIWFQQLLLSLTMLLLAFVTSFFYLLYS
partner: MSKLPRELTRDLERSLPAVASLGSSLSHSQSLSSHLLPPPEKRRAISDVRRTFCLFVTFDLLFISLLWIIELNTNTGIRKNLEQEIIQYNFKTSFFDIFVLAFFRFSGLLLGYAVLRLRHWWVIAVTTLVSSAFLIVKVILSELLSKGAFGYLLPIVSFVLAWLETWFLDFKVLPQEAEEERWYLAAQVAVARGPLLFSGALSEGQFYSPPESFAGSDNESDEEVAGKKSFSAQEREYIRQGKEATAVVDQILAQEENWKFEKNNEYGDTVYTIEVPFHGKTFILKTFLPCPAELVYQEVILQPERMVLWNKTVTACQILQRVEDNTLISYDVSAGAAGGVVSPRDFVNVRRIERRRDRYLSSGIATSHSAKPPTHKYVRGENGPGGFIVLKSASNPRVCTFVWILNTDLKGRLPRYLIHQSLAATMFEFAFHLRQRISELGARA
B2: Motile sperm domain-containing protein 2 (Homo sapiens), Q8NHP6 (parent)
chain: B1 chain
partner: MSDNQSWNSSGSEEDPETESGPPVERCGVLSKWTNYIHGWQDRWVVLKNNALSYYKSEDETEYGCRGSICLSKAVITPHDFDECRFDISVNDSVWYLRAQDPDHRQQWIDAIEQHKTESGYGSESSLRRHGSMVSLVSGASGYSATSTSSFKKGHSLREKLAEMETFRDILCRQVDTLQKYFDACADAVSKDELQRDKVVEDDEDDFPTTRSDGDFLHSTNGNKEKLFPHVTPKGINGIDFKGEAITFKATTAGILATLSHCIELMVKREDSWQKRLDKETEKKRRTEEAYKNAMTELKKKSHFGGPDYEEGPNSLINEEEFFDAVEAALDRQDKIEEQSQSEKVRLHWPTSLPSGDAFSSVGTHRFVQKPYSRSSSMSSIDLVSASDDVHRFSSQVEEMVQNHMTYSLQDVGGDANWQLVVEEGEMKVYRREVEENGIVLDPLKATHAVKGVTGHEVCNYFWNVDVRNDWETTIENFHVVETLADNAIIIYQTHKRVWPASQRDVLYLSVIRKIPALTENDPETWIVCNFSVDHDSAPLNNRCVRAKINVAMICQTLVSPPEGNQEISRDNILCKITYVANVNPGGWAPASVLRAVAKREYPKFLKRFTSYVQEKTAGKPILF
B3: Motile sperm domain-containing protein 2 (Homo sapiens), Q8NHP6 (parent)
chain: B1 chain
partner: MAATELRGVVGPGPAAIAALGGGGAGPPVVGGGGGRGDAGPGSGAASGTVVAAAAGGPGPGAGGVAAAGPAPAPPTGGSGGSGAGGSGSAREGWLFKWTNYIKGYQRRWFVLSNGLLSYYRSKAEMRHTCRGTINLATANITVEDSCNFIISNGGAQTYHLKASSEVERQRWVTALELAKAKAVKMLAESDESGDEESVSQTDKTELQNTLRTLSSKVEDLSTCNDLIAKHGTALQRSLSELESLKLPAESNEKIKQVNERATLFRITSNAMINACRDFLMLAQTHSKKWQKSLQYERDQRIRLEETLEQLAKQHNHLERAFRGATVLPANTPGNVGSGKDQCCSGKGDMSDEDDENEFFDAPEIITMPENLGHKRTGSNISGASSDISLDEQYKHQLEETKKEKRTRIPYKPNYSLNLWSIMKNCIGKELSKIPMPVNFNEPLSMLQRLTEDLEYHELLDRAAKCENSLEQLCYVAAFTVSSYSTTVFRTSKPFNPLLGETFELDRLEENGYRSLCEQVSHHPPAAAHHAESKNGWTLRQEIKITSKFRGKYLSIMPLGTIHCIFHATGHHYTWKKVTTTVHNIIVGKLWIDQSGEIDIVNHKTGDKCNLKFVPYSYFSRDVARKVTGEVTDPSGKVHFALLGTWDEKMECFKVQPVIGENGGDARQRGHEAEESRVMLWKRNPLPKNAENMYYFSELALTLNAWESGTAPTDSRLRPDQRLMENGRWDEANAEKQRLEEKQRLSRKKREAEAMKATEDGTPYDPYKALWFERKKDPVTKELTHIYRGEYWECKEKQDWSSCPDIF
B4: Ceramide transfer protein (Homo sapiens), Q9Y5P4 (parent)
chain: B2 partner
partner: B1 chain
B5: Oxysterol-binding protein-related protein 1 (Homo sapiens), Q9BXW6 (parent)
chain: MNTEAEQQLLHHARNGNAEEVRQLLETMARNEVIADINCKGRSKSNLGWTPLHLACYFGHRQVVQDLLKAGAEVNVLNDMGDTPLHRAAFTGRKELVMLLLEYNADTTIVNGSGQTAKEVTHAEEIRSMLEAVERTQQRKLEELLLAAAREGKTTELTALLNRPNPPDVNCSDQLGNTPLHCAAYRAHKQCALKLLRSGADPNLKNKNDQKPLDLAQGAEMKHILVGNKVIYKALKRYEGPLWKSSRFFGWRLFWVVLEHGVLSWYRKQPDAVHNIYRQGCKHLTQAVCTVKSTDSCLFFIKCFDDTIHGFRVPKNSLQQSREDWLEAIEEHSAYSTHYCSQDQLTDEEEEDTVSAADLKKSLEKAQSCQQRLDREISNFLKMIKECDMAKEMLPSFLQKVEVVSEASRETCVALTDCLNLFTKQEGVRNFKLEQEQEKNKILSEALETLATEHHELEQSLVKGSPPASILSEDEFYDALSDSESERSLSRLEAVTARSFEEEGEHLGSRKHRMSEEKDCGGGDALSNGIKKHRTSLPSPMFSRNDFSIWSILRKCIGMELSKITMPVIFNEPLSFLQRLTEYMEHTYLIHKASSLSDPVERMQCVAAFAVSAVASQWERTGKPFNPLLGETYELVRDDLGFRLISEQVSHHPPISAFHAEGLNNDFIFHGSIYPKLKFWGKSVEAEPKGTITLELLEHNEAYTWTNPTCCVHNIIVGKLWIEQYGNVEIINHKTGDKCVLNFKPCGLFGKELHKVEGYIQDKSKKKLCALYGKWTECLYSVDPATFDAYKKNDKKNTEEKKNSKQMSTSEELDEMPVPDSESVFIIPGSVLLWRIAPRPPNSAQMYNFTSFAMVLNEVDKDMESVIPKTDCRLRPDIRAMENGEIDQASEEKKRLEEKQRAARKNRSKSEEDWKTRWFHQGPNPYNGAQDWIYSGSYWDRNYFNLPDIY
partner: B1 chain
B6: Vesicle-associated membrane protein-associated protein A (Homo sapiens), Q9P0L0 (parent)
chain: MASASGAMAKHEQILVLDPPTDLKFKGPFTDVVTTNLKLRNPSDRKVCFKVKTTAPRRYCVRPNSGIIDPGSTVTVSVMLQPFDYDPNEKSKHKFMVQTIFAPPNTSDMEAVWKEAKPDELMDSKLRCVFEMPNENDKLNDMEPSKAVPLNASKQDGPMPKPHSVSLNDTETRKLMEECKRLQGEMMKLSEENRHLRDEGLRLRKVAHSDKPGSTSTASFRDNVTSPLPSLLVVIAAIFIGFFLGKFIL
partner: B5 chain

In the first experiment the parent is B1. Particulars: with star3_human STARD3, Q14849.
Regarding MAENHAQNKAKLISETRRRFEAEYVTDKSDKYDARDVERLQQDDNWVESYLSWRHNIVDETLKMLDESFQWRKEISVNDLNESSIPRWLLEIGVIYLHGYDKEGNKLFWIRVKYHVKDQKTILDKKKLIAFWLERYAKRENGKPVTVMFDLSETGINSIDMDFVRFIINCFKVYYPKYLSKIVIFDMPWLMNAAFKIVKTWLGPEAVSLLKFTSKNEVQDYVSVEYLPPHMGGTDPFKYSYPPLVDDDFQTPLCENGPITSEDETSSKEDIESDGKETLETISNEEQTPLLKKINPTESTSKAEENEKVDSKVKAFKKPLSVFKGPLLHISPAEELYFGSTESGEKKTLIVLTNVTKNIVAFKVRTTAPEKYRVKPSNSSCDPGASVDIVVSPHGGLTVSAQDDFDIMAAEMEQSSGTGPAELTQFWKEVPRNKVMEHRLRCHTVESSKPNTLTLKDNAFNMSDKTSEDICLQLSRLLESNRKLEDQVQRCIWFQQLLLSLTMLLLAFVTSFFYLLYS [R404D;L406D], the “effect of a mutation on the interaction” value was “disrupting interaction strength”.

The variants in another experiment derive from B2. Particulars: with cert_human CERT1, Q9Y5P4.
Regarding MAENHAQNKAKLISETRRRFEAEYVTDKSDKYDARDVERLQQDDNWVESYLSWRHNIVDETLKMLDESFQWRKEISVNDLNESSIPRWLLEIGVIYLHGYDKEGNKLFWIRVKYHVKDQKTILDKKKLIAFWLERYAKRENGKPVTVMFDLSETGINSIDMDFVRFIINCFKVYYPKYLSKIVIFDMPWLMNAAFKIVKTWLGPEAVSLLKFTSKNEVQDYVSVEYLPPHMGGTDPFKYSYPPLVDDDFQTPLCENGPITSEDETSSKEDIESDGKETLETISNEEQTPLLKKINPTESTSKAEENEKVDSKVKAFKKPLSVFKGPLLHISPAEELYFGSTESGEKKTLIVLTNVTKNIVAFKVRTTAPEKYRVKPSNSSCDPGASVDIVVSPHGGLTVSAQDDFDIMAAEMEQSSGTGPAELTQFWKEVPRNKVMEHRLRCHTVESSKPNTLTLKDNAFNMSDKTSEDICLQLSRLLESNRKLEDQVQRCIWFQQLLLSLTMLLLAFVTSFFYLLYS [R404D;L406D], the “effect of a mutation on the interaction” value was “disrupting interaction strength”.

The variants in the next experiment derive from B3. The conditions noted are these: with osbp1_human OSBP.
As to MAENHAQNKAKLISETRRRFEAEYVTDKSDKYDARDVERLQQDDNWVESYLSWRHNIVDETLKMLDESFQWRKEISVNDLNESSIPRWLLEIGVIYLHGYDKEGNKLFWIRVKYHVKDQKTILDKKKLIAFWLERYAKRENGKPVTVMFDLSETGINSIDMDFVRFIINCFKVYYPKYLSKIVIFDMPWLMNAAFKIVKTWLGPEAVSLLKFTSKNEVQDYVSVEYLPPHMGGTDPFKYSYPPLVDDDFQTPLCENGPITSEDETSSKEDIESDGKETLETISNEEQTPLLKKINPTESTSKAEENEKVDSKVKAFKKPLSVFKGPLLHISPAEELYFGSTESGEKKTLIVLTNVTKNIVAFKVRTTAPEKYRVKPSNSSCDPGASVDIVVSPHGGLTVSAQDDFDIMAAEMEQSSGTGPAELTQFWKEVPRNKVMEHRLRCHTVESSKPNTLTLKDNAFNMSDKTSEDICLQLSRLLESNRKLEDQVQRCIWFQQLLLSLTMLLLAFVTSFFYLLYS [R404D;L406D], the “effect of a mutation on the interaction” value is “disrupting interaction strength”.

The variants in another experiment derive from B4. Particulars: with mspd2_human MOSPD2, Q8NHP6.
In the case of D324A, the “effect of a mutation on the interaction” value was “disrupting interaction strength”.

The variants in another experiment derive from B5. Particulars: with mspd2_human MOSPD2, Q8NHP6.
With F476A;Y477A, the “effect of a mutation on the interaction” value was “disrupting interaction strength”.

The next experiment covers variants of B6. The conditions noted are these: with osbl1_human OSBPL1A.
In the case of MASASGAMAKHEQILVLDPPTDLKFKGPFTDVVTTNLKLRNPSDRKVCFKVKTTAPRRYCVRPNSGIIDPGSTVTVSVMLQPFDYDPNEKSKHDFDVQTIFAPPNTSDMEAVWKEAKPDELMDSKLRCVFEMPNENDKLNDMEPSKAVPLNASKQDGPMPKPHSVSLNDTETRKLMEECKRLQGEMMKLSEENRHLRDEGLRLRKVAHSDKPGSTSTASFRDNVTSPLPSLLVVIAAIFIGFFLGKFIL [K94D;M96D], the “effect of a mutation on the interaction” value is “disrupting interaction strength”.
